Experimental data published in the nanobody polyreactivity screen of Harvey et al. (2022).

Experiment: yeast display, Sf9 membrane polyspecificity reagent, FACS + sequencing; frameworks hold sequencing errors
In short: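 Genes from sorted yeast were amplified by colony PCR, read by MiSeq 2 × 250 sequencing and filtered on CDR length. These cells carried a synthetic nanobody library in Saccharomyces cerevisiae BJ5465 and were sorted by FACS into low and high (top ~1%) gates on anti-HA and streptavidin fluorescence. Polyreactivity is labelled according to the gate of origin.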
In the case of “QVQLVESGGCLVQAGGSLRLSCAASGSIFTTYAMGWYRQAPGKERELVAAISVSGSSTYYADSVKGRFTISRDNAKNTVYLQMNSLKPEDTAVYYCNKAFRSVRPRRRYDYWGQGTQVTVSS”, the “polyreactivity (PSR sort gate)” value is reported as “low polyreactivity”. With “QVQLVESGGCLVQAGGSLRLSCAASGSILRYYAMGWYRQAPGKERELVAAISRGGSTYYADSVKGRFTISRDNAKNTVYLQMNSLKPEDTAVYYCARLPLRYYFGYDYWGQGTQVTVSS” the “polyreactivity (PSR sort gate)” value was “high polyreactivity”. In the case of “QVQLVESGGCLVQAGGSLRLSCAASGSTFPIYAMGWYRQAPGKERELVARITWNGGRTYYADSVKGRFTISRDNAKNTVYLQMNSLKPEDTAVYYCAAGKIGSYHYDYWGQGTQVTVSS”, the “polyreactivity (PSR sort gate)” value is reported as “high polyreactivity”. In the case of “QVQLVESGGCLVQAGGSLRLSCAASGSTFTGYAMGWYRQAPGKEREFVATITKRGGRTYYADSVKGRFTISRDHAKNTVYLQMNSLKPEDTAVYYCARDQGKLVVPYDYWGQGTQVTVSS”, the “polyreactivity (PSR sort gate)” value is reported as “high polyreactivity”. For “QVQLVESGGCLVQAGGSLRLSCAASGSTFTLYAMGWYRPAPGKERELVAAIRRGGSTNYADSVKGRFTISRDNAKNTDYLQMNSLKPEDTAVYYCAADSYTSRSRYSGSGGYDYGGQGTQVTVSS”, the “polyreactivity (PSR sort gate)” value was “low polyreactivity”. With “QVQLVESGGCLVQAGGSLRLSCAASGSTFVYYAMGWYRQAPGKESELVAAITSGGSTYYADSVKGRFTISRDNAKNTVYLQMNSLKPEDTAVYYCATDYTWFGYRYDYWGQGTQVTVSS” the “polyreactivity (PSR sort gate)” value was “low polyreactivity”. For “QVQLVESGGCLVQAGGSLRLSCAASGSTLYRYVMGWYRPAPGKESELVAAISWSGTNTYADSVKGRFTISRDNAKNTVYLQMNSLKPEDTAVYYSAAAGPGYNWGYRVYAIYDYWGQGSQVTVSS”, the “polyreactivity (PSR sort gate)” value was “high polyreactivity”. For “QVQLVESGGCLVQAGGSLRLSCAASGSTSDIYARGWYSPAPGKEREFVAARSLTGGTTYYAASVKGRFTISCDNAKNTVYLQMNSLKPEDTAVYYCNADVGWWGYDDDYWGQGTQVTVSS”, the “polyreactivity (PSR sort gate)” value was “high polyreactivity”. For “QVQLVESGGCLVQAGGSLRLSCAASGYIFDHYAMGCYRQAPGKERELVAAISRSAGSTYYADSVKGRFTISRDNAKNTVYLQMNSLKPEDTAVYYCNAVVAVRSWRKYEYWGQGTQVTVSS”, the “polyreactivity (PSR sort gate)” value was “high polyreactivity”. For “QVQLVESGGCLVQAGGSLRLSCAASGYTFRYNAMGWYRQAHGKERELVATITRGGSTNYADSVKGRFTISRDNEKNTVYLLMYSLKPEDPAVYYCNKEAAPLGFVPSYYGRDYWRQGTQVTVSS”, the “polyreactivity (PSR sort gate)” value was “low polyreactivity”. In the case of “QVQLVESGGCLVQAGGSLRLSCAATGRTFHGYAMGWYRQAPGKERELVAAITSSGARTYYADSVKGRFTISRDNAKNTVYLQMNSLKPEDTAVYYCAKRGKQYRKMNYWGQGTQVTVSS”, the “polyreactivity (PSR sort gate)” value is reported as “high polyreactivity”. With “QVQLVESGGCLVQAGGSLRLSCAPSGSTFIPNPMGWYRQEPGKERELVAAISRRGGSTNYADSVKGRFTISRDNAKNTVFLQMNSVKPEDTAVYYCAAVSPRRYRYDYWGQGPQVTVSS” the “polyreactivity (PSR sort gate)” value was “low polyreactivity”. With “QVQLVESGGCLVQAGGSLRLSCASSGIIIRKYAMGWYRQQPGKERELVAAITTRGSRTYYADSVKGRFTISRDNAKNTVYLQMNSLKPEDTAVYYCASDRYTVRMDYWGQGTQVTVSS” the “polyreactivity (PSR sort gate)” value was “high polyreactivity”. With “QVQLVESGGCLVQAGGSLRLSCSSSGFIFFYNMGWYRQAPGKERDLVADISTGGSTNYADSVKGRFTISRDNAKNTVYLQMNSLKQEDTAVYYCAAVYYNVYQYEPWYDYWGQGTQVTVSS” the “polyreactivity (PSR sort gate)” value was “low polyreactivity”. In the case of “QVQLVESGGCLVQAGGSLRLSSAASGSIFHAYAMGWYRQSPGKESELVAAITIDGSTNYADSVKGRFTISRDNAKNTVYLQMNSLKPEDTAVYYCNKDGAYDAYSYDYWGQGTQVTVSS”, the “polyreactivity (PSR sort gate)” value is reported as “low polyreactivity”. With “QVQLVESGGCLVQAGGSRRLSCDASVRIVPVYAMGWYRQAHGNERELVAAISQSGGSTYADSVKGRFTISRDNAKNTVYLQMNSLKPEDTAVYYCAARYWKWRPAYEYWGPGTQVTVSS” the “polyreactivity (PSR sort gate)” value was “high polyreactivity”.
